Measurements published in IntAct's records for PubMed 32296183.

B1: Transmembrane protein 43 (Homo sapiens), Q9BTV4 (parent)
chain: MAANYSSTSTRREHVKVKTSSQPGFLERLSETSGGMFVGLMAFLLSFYLIFTNEGRALKTATSLAEGLSLVVSPDSIHSVAPENEGRLVHIIGALRTSKLLSDPNYGVHLPAVKLRRHVEMYQWVETEESREYTEDGQVKKETRYSYNTEWRSEIINSKNFDREIGHKNPSAMAVESFMATAPFVQIGRFFLSSGLIDKVDNFKSLSLSKLEDPHVDIIRRGDFFYHSENPKYPEVGDLRVSFSYAGLSGDDPDLGPAHVVTVIARQRGDQLVPFSTKSGDTLLLLHHGDFSAEEVFHRELRSNSMKTWGLRAAGWMAMFMGLNLMTRILYTLVDWFPVFRDLVNIGLKAFAFCVATSLTLLTVAAGWLFYRPLWALLIAGLALVPILVARTRVPAKKLE

Variants of: B1
Conditions: with ubp25_human USP25, Q9UHP3
ubp25_human USP25, Q9UHP3, sequence (Q9UHP3 whole entry): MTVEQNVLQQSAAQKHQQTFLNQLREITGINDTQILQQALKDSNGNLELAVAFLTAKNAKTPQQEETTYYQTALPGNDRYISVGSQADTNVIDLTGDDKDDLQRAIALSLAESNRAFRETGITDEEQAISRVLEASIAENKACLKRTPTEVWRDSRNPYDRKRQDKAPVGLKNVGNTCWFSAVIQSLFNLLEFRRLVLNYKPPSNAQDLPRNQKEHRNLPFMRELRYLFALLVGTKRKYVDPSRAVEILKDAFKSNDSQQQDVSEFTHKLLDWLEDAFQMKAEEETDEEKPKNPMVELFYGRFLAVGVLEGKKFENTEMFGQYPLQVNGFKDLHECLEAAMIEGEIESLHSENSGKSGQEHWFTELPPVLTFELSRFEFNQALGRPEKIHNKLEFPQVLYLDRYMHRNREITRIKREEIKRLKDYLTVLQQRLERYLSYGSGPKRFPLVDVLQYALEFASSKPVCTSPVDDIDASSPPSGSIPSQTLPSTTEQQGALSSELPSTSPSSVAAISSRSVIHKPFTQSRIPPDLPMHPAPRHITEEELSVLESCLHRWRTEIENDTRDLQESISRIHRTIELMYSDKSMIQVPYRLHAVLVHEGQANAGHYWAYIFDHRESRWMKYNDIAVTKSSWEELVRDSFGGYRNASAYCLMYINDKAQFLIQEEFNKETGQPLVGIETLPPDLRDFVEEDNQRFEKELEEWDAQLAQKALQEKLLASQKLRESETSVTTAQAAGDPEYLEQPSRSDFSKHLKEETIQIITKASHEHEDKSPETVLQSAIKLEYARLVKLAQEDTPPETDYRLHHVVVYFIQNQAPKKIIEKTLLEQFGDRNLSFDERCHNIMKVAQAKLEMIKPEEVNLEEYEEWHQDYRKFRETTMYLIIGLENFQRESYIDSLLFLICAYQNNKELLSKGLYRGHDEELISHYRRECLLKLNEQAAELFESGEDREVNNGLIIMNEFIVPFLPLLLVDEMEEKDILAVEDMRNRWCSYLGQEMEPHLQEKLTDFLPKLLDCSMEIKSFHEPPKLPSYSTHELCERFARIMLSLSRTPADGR

**Q.** For R28W, which “effect of a mutation on the interaction” value is on record?
**A.** with no effect

**Q.** For Y371H, which “effect of a mutation on the interaction” value is on record?
**A.** with no effect

**Q.** How did the “effect of a mutation on the interaction” value turn out when I91V was run?
**A.** with no effect

**Q.** For E142K, which “effect of a mutation on the interaction” value is on record?
**A.** with no effect

Variants of: B1
Conditions: with ar13b_human ARL13B

**Q.** How did the “effect of a mutation on the interaction” value turn out when R28W was run?
**A.** disrupting interaction strength

**Q.** With Y371H as the variant, how does the “effect of a mutation on the interaction” value read?
**A.** with no effect

**Q.** Which “effect of a mutation on the interaction” value does the source give for I91V here?
**A.** with no effect

**Q.** With E142K as the variant, how does the “effect of a mutation on the interaction” value read?
**A.** disrupting interaction strength

Variants of: B1
Conditions: with FGA

**Q.** R28W was tested. Which “effect of a mutation on the interaction” value did it give?
**A.** with no effect

**Q.** Which “effect of a mutation on the interaction” value does the source give for Y371H here?
**A.** with no effect

**Q.** How did the “effect of a mutation on the interaction” value turn out when I91V was run?
**A.** with no effect

**Q.** E142K was tested. Which “effect of a mutation on the interaction” value did it give?
**A.** with no effect

Variants of: B1
Conditions: with PCYT1B

**Q.** With R28W as the variant, how does the “effect of a mutation on the interaction” value read?
**A.** with no effect

**Q.** With Y371H as the variant, how does the “effect of a mutation on the interaction” value read?
**A.** with no effect

**Q.** How did the “effect of a mutation on the interaction” value turn out when I91V was run?
**A.** with no effect

**Q.** E142K was tested. Which “effect of a mutation on the interaction” value did it give?
**A.** with no effect

Variants of: B1
Conditions: with zch12_human ZCCHC12, Q6PEW1
zch12_human ZCCHC12, Q6PEW1, sequence (Q6PEW1 whole entry): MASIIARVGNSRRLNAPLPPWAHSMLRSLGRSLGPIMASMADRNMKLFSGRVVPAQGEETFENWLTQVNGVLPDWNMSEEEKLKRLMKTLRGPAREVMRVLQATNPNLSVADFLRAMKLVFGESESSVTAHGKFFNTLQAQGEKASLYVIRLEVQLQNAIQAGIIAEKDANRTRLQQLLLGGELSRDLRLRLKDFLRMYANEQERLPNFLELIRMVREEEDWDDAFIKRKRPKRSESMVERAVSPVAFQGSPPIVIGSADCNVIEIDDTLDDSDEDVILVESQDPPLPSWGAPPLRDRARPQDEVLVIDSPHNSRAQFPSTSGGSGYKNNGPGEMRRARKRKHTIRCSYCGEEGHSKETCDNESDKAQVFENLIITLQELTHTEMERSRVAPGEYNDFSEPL

**Q.** How did the “effect of a mutation on the interaction” value turn out when R28W was run?
**A.** with no effect

**Q.** Which “effect of a mutation on the interaction” value does the source give for Y371H here?
**A.** with no effect

**Q.** How did the “effect of a mutation on the interaction” value turn out when I91V was run?
**A.** with no effect

**Q.** For E142K, which “effect of a mutation on the interaction” value is on record?
**A.** with no effect
